Drawing on the Immune Epitope Database (IEDB), this text covers IC50 for 23 sequences.

Common to all, as to assay: IEDB peptide-MHC binding, purified MHC/competitive/radioactivity; ≥ and ≤ were set here for values at or beyond the usual limits of such assays
For assay [1], the target named is HLA-A*02:03.
Assay [2] addresses HLA-A*02:06.
Assay [3] deals with HLA-A*68:02.
In assay [4] the target is HLA-A*02:02.
Assay [5] has as its target HLA-A*02:01.
Setting [6] is: source organism: Influenza A virus.
Setting [7] is: source organism: Vaccinia virus WR.
[8] abbreviates: source organism: Hepacivirus hominis.

For LVASSGTLEFI, the IC50 (usually the point on the concentration scale where inhibition reaches its midpoint) came out at 697 nM in assay [1] (setting [6]); 305 nM in assay [2] (setting [6]); 199 nM in assay [3] (setting [6]); 153 nM in assay [4] (setting [6]); 3730 nM in assay [5] (setting [6]).
LVFLWLLWPV: the IC50 in assay [1] (source organism: SARS-CoV1) was found to be 1.9 nM; in assay [2] (source organism: SARS-CoV1) it was 0.56 nM; in assay [3] (source organism: SARS-CoV1), 18 nM; in assay [4] (source organism: SARS-CoV1), 0.93 nM; in assay [5] (source organism: SARS-CoV1), 4.9 nM.
As for LVIGFLFLA, the IC50 turned out to be 20 nM in assay [1] (source organism: SARS-CoV1); 0.095 nM in assay [2] (source organism: SARS-CoV1); 26 nM in assay [3] (source organism: SARS-CoV1); 7.4 nM in assay [4] (source organism: SARS-CoV1); 1.4 nM in assay [5] (source organism: SARS-CoV1).
LVIGVAFLAV: the IC50 is 22 nM in assay [1] (source organism: SARS-CoV1); 2.6 nM in assay [2] (source organism: SARS-CoV1); 62 nM in assay [3] (source organism: SARS-CoV1); 2710 nM in assay [4] (source organism: SARS-CoV1); 342 nM in assay [5] (source organism: SARS-CoV1).
Turning to LVKDESIQL, the IC50 in assay [1] (setting [7]) is 649 nM; in assay [2] (setting [7]), 1400 nM; in assay [3] (setting [7]), 1470 nM; in assay [4] (setting [7]), 122 nM; in assay [5] (setting [7]), 3150 nM.
Turning to LVMDKNHAI, the IC50 in assay [1] (setting [7]) worked out at 770 nM; in assay [2] (setting [7]), 103 nM; in assay [3] (setting [7]), 10 nM; in assay [4] (setting [7]), 19 nM; in assay [5] (setting [7]) it was 327 nM.
Taken in the same sequence, the figures for LVSDCASTI were 17 nM, 61 nM, 71 nM, 49 nM and 2740 nM.
MAAAKTPVI: the IC50 is 209 nM in assay [1] (setting [7]); 672 nM in assay [2] (setting [7]); 16 nM in assay [3] (setting [7]); 259 nM in assay [4] (setting [7]); 1370 nM in assay [5] (setting [7]).
Taken in the same sequence, the figures for MAFDISVNA were 15 nM, 13 nM, 1.8 nM, 191 nM and 149 nM.
In the same order, the values of MAGVEVRYI are 201 nM, 2050 nM, 583 nM, 293 nM and 2310 nM.
Taken in the same sequence, the figures for MICCDSRIVV were 392 nM, 52 nM, 27 nM, 665 nM and 25 nM.
Regarding MIHKTYIDV, the IC50 in assay [1] (setting [7]) is 15 nM; in assay [2] (setting [7]), 126 nM; in assay [3] (setting [7]), 269 nM; in assay [4] (setting [7]), 1400 nM; in assay [5] (setting [7]) it was 1920 nM.
MIIGEPIIVA: the IC50 came out at 111 nM in assay [1] (setting [7]); 124 nM in assay [2] (setting [7]); 280 nM in assay [3] (setting [7]); 42 nM in assay [4] (setting [7]); 44 nM in assay [5] (setting [7]).
Consider MILMTHFFSI, for which the IC50 is 1120 nM in assay [1] (setting [8]); 307 nM in assay [2] (setting [8]); 883 nM in assay [3] (setting [8]); 420 nM in assay [4] (setting [8]); 268 nM in assay [5] (setting [8]).
Turning to MIYDLNAVTT, the IC50 in assay [1] (setting [7]) amounted to 477 nM; in assay [2] (setting [7]) it was 429 nM; in assay [3] (setting [7]), 114 nM; in assay [4] (setting [7]), 897 nM; in assay [5] (setting [7]), 278 nM.
Turning to MLFTKFFYL, the IC50 in assay [1] (source organism: SARS-CoV1) amounted to 17 nM; in assay [2] (source organism: SARS-CoV1), 1.4 nM; in assay [3] (source organism: SARS-CoV1) it was 0.056 nM; in assay [4] (source organism: SARS-CoV1), 0.085 nM; in assay [5] (source organism: SARS-CoV1), 0.17 nM.
As to MLLAYLVRI, the IC50 in assay [1] (setting [8]) stood at 12 nM; in assay [2] (setting [8]), 5 nM; in assay [3] (setting [8]), 1830 nM; in assay [4] (setting [8]) it was 6.6 nM; in assay [5] (setting [8]) it was 3.3 nM.
As to MLLNVQTLI, the IC50 was found to be 0.25 nM in assay [1] (setting [7]); 0.22 nM in assay [2] (setting [7]); 216 nM in assay [3] (setting [7]); 0.17 nM in assay [4] (setting [7]); 2.9 nM in assay [5] (setting [7]).
For MLLTFLTSL, the IC50 in assay [1] (source organism: SARS-CoV1) is 4.8 nM; in assay [2] (source organism: SARS-CoV1), 3.6 nM; in assay [3] (source organism: SARS-CoV1) it was 923 nM; in assay [4] (source organism: SARS-CoV1), 6.2 nM; in assay [5] (source organism: SARS-CoV1), 1.6 nM.
Regarding MLLTFLTSLL, the IC50 in assay [1] (source organism: SARS-CoV1) amounted to 7.3 nM; in assay [2] (source organism: SARS-CoV1), 25 nM; in assay [3] (source organism: SARS-CoV1), 299 nM; in assay [4] (source organism: SARS-CoV1) it was 0.73 nM; in assay [5] (source organism: SARS-CoV1), 11 nM.
Regarding MLNRVQILM, the IC50 in assay [1] (setting [7]) is 27 nM; in assay [2] (setting [7]), 2560 nM; in assay [3] (setting [7]), 4200 nM; in assay [4] (setting [7]) it was 4.8 nM; in assay [5] (setting [7]), 28 nM.
In the same order, the values of MLPESDLDKV are 1770 nM, 4.4 nM, 196 nM, 3.2 nM and 11 nM.
On to MLSVVGFLV, for which the IC50 in assay [1] (source organism: SARS-CoV1) was 3.5 nM; in assay [2] (source organism: SARS-CoV1) it was 116 nM; in assay [3] (source organism: SARS-CoV1), 92 nM; in assay [4] (source organism: SARS-CoV1), 1 nM; in assay [5] (source organism: SARS-CoV1), 7.7 nM.
